These results are taken from patent publication US20090022738A1 (MICROMET, published 2009).

A value given as a limit tells only on which side of the number the result lay.

Test [1] deals with T1, Epithelial cell adhesion molecule (EpCAM) (human, UniProt P16422 24-314).
T1 construct: whole, on cells; also called 17-1A antigen; KSA
T1 sequence (looked up): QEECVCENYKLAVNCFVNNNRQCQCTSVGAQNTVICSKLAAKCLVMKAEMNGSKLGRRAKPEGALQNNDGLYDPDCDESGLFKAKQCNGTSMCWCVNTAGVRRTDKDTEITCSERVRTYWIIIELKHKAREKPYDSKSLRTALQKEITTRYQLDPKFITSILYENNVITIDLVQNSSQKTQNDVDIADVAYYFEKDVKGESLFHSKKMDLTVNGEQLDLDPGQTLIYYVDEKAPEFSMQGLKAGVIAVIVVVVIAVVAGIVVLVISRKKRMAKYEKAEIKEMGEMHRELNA
Put plainly: FACS, 10 µg/ml on EpCAM positive Kato III cells. As to the method:
(§1) Binding of the bispecific single chain molecules with anti-CD3 part in N-terminal orientation to EpCAM and CD3 were confirmed by FACS analyses. For that purpose the EpCAM positive human gastric cancer cell line Kato III (ATCC HTB-103) was used.
(§2) Cells were cultured according to the recommendations of the supplier and a number of 200000 cells was incubated with 10 μg/ml of the construct in 50 μl PBS with 2% FCS (fetal calf serum). The binding of the construct was detected with an anti-His antibody (Penta-His Antibody, obtained from Qiagen, Hilden, FRG) at 2 μg/ml in PBS with 2% FCS. […] The samples were measured on a FACSscan (BD biosciences, Heidelberg, FRG).

Test [2] deals with T2, human CD3 (human, UniProt P07766 23-207; P04234 22-171; P09693 23-182).
T2 construct: whole, on cells; also called CD3 antigen; human CD3 complex
Put plainly: FACS, 10 µg/ml on Jurkat cells. The method, then:
as §1, §2
In general terms: In flow cytometry, cells or beads pass a laser one at a time.

For test [3], the target named is T2, human CD3. Put plainly: FACS on CD3-enriched PBMCs.
The target of test [4] is T2, human CD3. Put plainly: FACS, second experiment, crude supernatant on CD3-enriched PBMCs. As to the method: (§3) In order to analyze the binding efficacy of the deimmunized constructs to CD3 and CD19 a FACS-based assay was performed. Initially, crude supernatants were tested for binding on CD3-enriched PBMCs or CD19-positive NALM-6 cells. Cells were incubated with non-diluted supernatants for 30 minutes at 8° C. Upon two wash steps the cells were labeled with an anti-His antibody (Qiagen) under the same conditions. After additional wash steps binding of the constructs was detected with a FITC-conjugated sheep anti-mouse antibody (Sigma). Cells were analyzed with a FACS Calibur cytometer (B&D). As controls supernatants of anti-CD19×anti-CD3 and GFP-transfected cells were included. […] The positive control, which was a non-deimmunized anti-CD19×anti-CD3 construct reached a MFI of around 60 showing that the deimmunized constructs comprising anti-CD3 (VH5/VL1) (SEQ ID NO.:190), anti-CD3 (VH5/VL2) (SEQ ID NO.:192), anti-CD3 (VH5/VL3) (SEQ ID NO.:194), anti-CD3 (VH7/VL1) (SEQ ID NO.:196), anti-CD3 (VH7/VL2) (SEQ ID NO.:198) and anti-CD3 (VH7/VL3) (SEQ ID NO.:200) bound CD3 with extremely high efficacy.

Test [5] addresses T3, CD19 (human, UniProt P15391 20-556).
T3 construct: whole, on cells; also called CD19 on NALM-6 cells
T3 sequence (looked up): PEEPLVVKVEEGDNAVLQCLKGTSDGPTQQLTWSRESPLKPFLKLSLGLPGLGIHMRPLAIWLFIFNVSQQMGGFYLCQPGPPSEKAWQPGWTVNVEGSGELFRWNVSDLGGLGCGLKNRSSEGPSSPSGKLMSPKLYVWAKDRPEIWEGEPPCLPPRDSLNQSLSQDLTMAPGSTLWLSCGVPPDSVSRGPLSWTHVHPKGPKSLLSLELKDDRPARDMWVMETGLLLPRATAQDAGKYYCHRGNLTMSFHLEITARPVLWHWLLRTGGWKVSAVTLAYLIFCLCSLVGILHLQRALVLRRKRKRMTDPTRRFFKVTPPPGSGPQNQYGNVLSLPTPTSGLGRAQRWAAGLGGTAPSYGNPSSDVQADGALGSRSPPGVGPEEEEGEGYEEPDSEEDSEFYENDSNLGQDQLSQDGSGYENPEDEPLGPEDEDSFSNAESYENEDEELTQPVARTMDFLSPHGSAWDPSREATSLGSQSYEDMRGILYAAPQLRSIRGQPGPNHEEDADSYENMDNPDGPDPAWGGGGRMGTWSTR
In words: FACS, crude supernatant on CD19-positive NALM-6 cells; negative control MFI ca. 3. The method, then:
as §3
The FACS-based binding assay was also carried out for CD19. In this experiment CD19 and a secondary antibody was as a negative control. In this experiment, all assayed constructs achieved a MFI of at least 80 while the MFI of the negative control was ca. 3.

B1: deimmunized anti-CD3 (VH5/VL2)×4-7 (SEQ ID NO.:33) (bispecific antibody)
chain: DVQLVQSGAEVKKPGASVKVSCKASGYTFTRYTMHWVRQAPGQGLEWIGYINPSRGYTNYADSVKGRFTITTDKSTSTAYMELSSLRSEDTATYYCARYYDDHYCLDYWGQGTTVTVSSGEGTSTGSGGSGGSGGADDIVLTQSPATLSLSPGERATLSCRASQSVSYMNWYQQKPGKAPKRWIYDTSKVASGVPARFSGSGSGTDYSLTINSLEAEDAATYYCQQWSSNPLTFGGGTKVEIKSGGGGSEVQLLEQSGAELARPGASVKLSCKASGYTFTNYGLSWVKQRPGQVLEWIGEVYPRIGNAYYNEKFKGKATLTADKSSSTASMELRSLTSEDSAVYFCARRGSYDTNYDWYFDVWGQGTTVTVSSGGGGSGGGGSGGGGSELVMTQTPLSLPVSLGDQASISCRSSQSLVHSNGNTYLHWYLQKPGQSPKLLIYKVSNRFSGVPDRFSGSGSGTDFTLKISRVEAEDLGVYFCSQSTHVPYTFGGGTKLEIK
notes: Bispecific single chain, VH(CD3)-VL(CD3)-VH(EpCAM)-VL(EpCAM); detected by anti-His; also called anti-CD3 (VH5/VL2)x4-7
Consider B1, for which the binding result in test [1] and in test [2] was “binds” each time.

B2: anti-CD19×anti-CD3 (VH3/VL1) (SEQ ID NO.:184) (bispecific antibody)
chain: DIQLTQSPASLAVSLGQRATISCKASQSVDYDGDSYLNWYQQIPGQPPKLLIYDASNLVSGIPPRFSGSGSGTDFTLNIHPVEKVDAATYHCQQSTEDPWTFGGGTKLEIKGGGGSGGGGSGGGGSQVQLQQSGAELVRPGSSVKISCKASGYAFSSYWMNWVKQRPGQGLEWIGQIWPGDGDTNYNGKFKGKATLTADESSSTAYMQLSSLASEDSAVYFCARRETTTVGRYYYAMDYWGQGTTVTVSSGGGGSDVQLVQSGAEVKKPGASVKVSCKASGYTATRYTMHWVRQAPGQGLEWIGYINPSRGYTNYAQKLQGRVTMTTDTSTSTAYLQMNSLKTEDTAVYYCARYYDDHYCLDYWGQGTTVTVSSGEGTSTGSGGSGGSGGADDIQMTQSPSSLSASVGDRVTITCRASQSVSYMNWYQQKPGKAPKRWIYDTSKVASGVPARFSGSGSGTDYSLTINSLEAEDAATYYCQQWSSNPLTFGGGTKVEIK
notes: As m4: bispecific single chain, His-tagged; also called pEF anti-CD19×anti-CD3 (VH3/VL1)
For B2, the binding result in test [3] is recorded as “no binding (tested: non-diluted supernatant)”. Besides, the figures for the MFI in test [4] and in test [5] were around 6 MFI and at least 80 MFI, respectively.

B3: deimmunized anti-CD3 (VH5/VL2)×3-1 (SEQ ID NO.:31) (bispecific antibody)
chain: DVQLVQSGAEVKKPGASVKVSCKASGYTFTRYTMHWVRQAPGQGLEWIGYINPSRGYTNYADSVKGRFTITTDKSTSTAYMELSSLRSEDTATYYCARYYDDHYCLDYWGQGTTVTVSSGEGTSTGSGGSGGSGGADDIVLTQSPATLSLSPGERATLSCRASQSVSYMNWYQQKPGKAPKRWIYDTSKVASGVPARFSGSGSGTDYSLTINSLEAEDAATYYCQQWSSNPLTFGGGTKVEIKSGGGGSEVQLLEQSGAELVKPGASVKISCKASGYAFTNYWLGWVKQRPGHGLEWIGDLFPGSGNTHYNERFRGKATLTADKSSSTAFMQLSSLTSEDSAVYFCARLRNWDEAMDYWGQGTTVTVSSGGGGSGGGGSGGGGSELVMTQSPSYLAASPGETITINCRASKSISKYLAWYQEKPGKTNKLLIYSGSTLQSGIPSRFSGSGSGTDFTLTISSLEPEDFAMYYCQQHNEYPYTFGGGTKLEIK
notes: Bispecific single chain, VH(CD3)-VL(CD3)-VH(EpCAM)-VL(EpCAM); detected by anti-His
As to B3, the binding result in test [1] and in test [2] was “binds” throughout.

B4: deimmunized anti-CD3 (VH5/VL2)×5-10 (VL-VH) (SEQ ID NO.:39) (bispecific antibody)
chain: DVQLVQSGAEVKKPGASVKVSCKASGYTFTRYTMHWVRQAPGQGLEWIGYINPSRGYTNYADSVKGRFTITTDKSTSTAYMELSSLRSEDTATYYCARYYDDHYCLDYWGQGTTVTVSSGEGTSTGSGGSGGSGGADDIVLTQSPATLSLSPGERATLSCRASQSVSYMNWYQQKPGKAPKRWIYDTSKVASGVPARFSGSGSGTDYSLTINSLEAEDAATYYCQQWSSNPLTFGGGTKVEIKSGGGGSELVMTQSPSSLTVTAGEKVTMSCKSSQSLLNSGNQKNYLTWYQQKPGQPPKLLIYWASTRESGVPDRFTGSGSGTDFTLTISSVQAEDLAVYYCQNDYSYPLTFGAGTKLEIKGGGGSGGGGSGGGGSEVQLLEQSGAELVRPGTSVKISCKASGYAFTNYWLGWVKQRPGHGLEWIGDIFPGSGNIHYNEKFKGKATLTADKSSSTAYMQLSSLTFEDSAVYFCARLRNWDEPMDYWGQGTTVTVSS
notes: Bispecific single chain, VH(CD3)-VL(CD3)-VL(EpCAM)-VH(EpCAM); detected by anti-His; also called anti-CD3 (VH5/VL2)x5-10 (VL-VH)
Take B4: the binding result in test [1] and in test [2] was “binds” throughout.

B5: deimmunized anti-CD3 (VH5/VL2)×4-7 (VL-VH) (SEQ ID NO.:35) (bispecific antibody)
chain: DVQLVQSGAEVKKPGASVKVSCKASGYTFTRYTMHWVRQAPGQGLEWIGYINPSRGYTNYADSVKGRFTITTDKSTSTAYMELSSLRSEDTATYYCARYYDDHYCLDYWGQGTTVTVSSGEGTSTGSGGSGGSGGADDIVLTQSPATLSLSPGERATLSCRASQSVSYMNWYQQKPGKAPKRWIYDTSKVASGVPARFSGSGSGTDYSLTINSLEAEDAATYYCQQWSSNPLTFGGGTKVEIKSGGGGSELVMTQTPLSLPVSLGDQASISCRSSQSLVHSNGNTYLHWYLQKPGQSPKLLIYKVSNRFSGVPDRFSGSGSGTDFTLKISRVEAEDLGVYFCSQSTHVPYTFGGGTKLEIKGGGGSGGGGSGGGGSEVQLLEQSGAELARPGASVKLSCKASGYTFTNYGLSWVKQRPGQVLEWIGEVYPRIGNAYYNEKFKGKATLTADKSSSTASMELRSLTSEDSAVYFCARRGSYDTNYDWYFDVWGQGTTVTVSS
notes: Bispecific single chain, VH(CD3)-VL(CD3)-VL(EpCAM)-VH(EpCAM); detected by anti-His; also called anti-CD3 (VH5/VL2)x4-7 (VL-VH)
With B5, the binding result in test [1] and in test [2] was “binds” in each case.

B6: deimmunized anti-CD3 (VH5/VL2)×5-10 (SEQ ID NO.:37) (bispecific antibody)
chain: DVQLVQSGAEVKKPGASVKVSCKASGYTFTRYTMHWVRQAPGQGLEWIGYINPSRGYTNYADSVKGRFTITTDKSTSTAYMELSSLRSEDTATYYCARYYDDHYCLDYWGQGTTVTVSSGEGTSTGSGGSGGSGGADDIVLTQSPATLSLSPGERATLSCRASQSVSYMNWYQQKPGKAPKRWIYDTSKVASGVPARFSGSGSGTDYSLTINSLEAEDAATYYCQQWSSNPLTFGGGTKVEIKSGGGGSEVQLLEQSGAELVRPGTSVKISCKASGYAFTNYWLGWVKQRPGHGLEWIGDIFPGSGNIHYNEKFKGKATLTADKSSSTAYMQLSSLTFEDSAVYFCARLRNWDEPMDYWGQGTTVTVSSGGGGSGGGGSGGGGSELVMTQSPSSLTVTAGEKVTMSCKSSQSLLNSGNQKNYLTWYQQKPGQPPKLLIYWASTRESGVPDRFTGSGSGTDFTLTISSVQAEDLAVYYCQNDYSYPLTFGAGTKLEIK
notes: Bispecific single chain, VH(CD3)-VL(CD3)-VH(EpCAM)-VL(EpCAM); expressed in CHO with a leader peptide; detected by anti-His
As for B6, the binding result in test [1] and in test [2] was “binds” each time.
